In article PMC4807281, “Glutathionylation of the Bacterial Hsp70 Chaperone DnaK Provides a Link between Oxidative Stress and the Heat Shock Response*” (The Journal of Biological Chemistry, 2016):
No end group written: not given here. *: point of attachment. FITC = O=C1OC2(c3ccc(O)cc3Oc3cc(O)ccc32)c2ccc(NC(=S)*)cc21

B1: His6-Smt3-σ^32 (natural protein, E. coli, UniProt P0AGB3 1-284, looked up)
chain: MTDKMQSLALAPVGNLDSYIRAANAWPMLSADEERALAEKLHYHGDLEAAKTLILSHLRFVVHIARNYAGYGLPQADLIQEGNIGLMKAVRRFNPEVGVRLVSFAVHWIKAEIHEYVLRNWRIVKVATTKAQRKLFFNLRKTKQRLGWFNQDEVEMVARELGVTSKDVREMESRMAAQDMTFDLSSDDDSDSQPMAPVLYLQDKSSNFADGIEDDNWEEQAANRLTDAMQGLDERSQDIIRARWLDEDNKSTLQELADRYGVSAERVRQLEKNAMKKLRAAIEA
notes: σ^32 subunit of RNA polymerase (heat shock sigma factor), E. coli, gene rpoH cloned from genomic DNA of E. coli C41 cells; primers from the start to the stop codon; The His6-Smt3 tag (pET28a-SMT3) was not cleaved from σ^32; order of the tags from the printed label; also called heat shock transcription factor σ^32; not shown: His6, N-terminal, kept; Smt3, N-terminal, kept
B2: His6-GrpE (natural protein, E. coli, UniProt P09372 1-197, looked up)
chain: MSSKEQKTPEGQAPEEIIMDQHEEIEAVEPEASAEQVDPRDEKVANLEAQLAEAQTRERDGILRVKAEMENLRRRTELDIEKAHKFALEKFINELLPVIDSLDRALEVADKANPDMSAMVEGIELTLKSMLDVVRKFGVEVIAETNVPLDPNVHQAIAMVESDDVAPGNVLGIMQKGYTLNGRTIRAAMVTVAKAKA
notes: GrpE (nucleotide exchange factor of DnaK), E. coli, gene grpE cloned from genomic DNA of E. coli C41 cells; primers from the start to the stop codon; Uncleavable His6 tag from the mini pRSETa plasmid; not shown: His6, N-terminal, kept
B3: His6-DnaJ (natural protein, E. coli, UniProt P08622 1-376, looked up)
chain: MAKQDYYEILGVSKTAEEREIRKAYKRLAMKYHPDRNQGDKEAEAKFKEIKEAYEVLTDSQKRAAYDQYGHAAFEQGGMGGGGFGGGADFSDIFGDVFGDIFGGGRGRQRAARGADLRYNMELTLEEAVRGVTKEIRIPTLEECDVCHGSGAKPGTQPQTCPTCHGSGQVQMRQGFFAVQQTCPHCQGRGTLIKDPCNKCHGHGRVERSKTLSVKIPAGVDTGDRIRLAGEGEAGEHGAPAGDLYVQVQVKQHPIFEREGNNLYCEVPINFAMAALGGEIEVPTLDGRVKLKVPGETQTGKLFRMRGKGVKSVRGGAQGDLLCRVVVETPVGLNERQKQLLQELQESFGGPTGEHNSPRSKSFFDGVKKFFDDLTR

Experiments:
DnaK, untreated control [1] = target: T1, DnaK, untreated control (E. coli, UniProt P0A6Y8 1-638); test: fluorescence polarisation; steady state; 20 nM FITC-…, increasing concentrations of DnaK, Buffer B, room temperature; ATP state; details: both partners purified
T1 sequence (P0A6Y8 whole entry): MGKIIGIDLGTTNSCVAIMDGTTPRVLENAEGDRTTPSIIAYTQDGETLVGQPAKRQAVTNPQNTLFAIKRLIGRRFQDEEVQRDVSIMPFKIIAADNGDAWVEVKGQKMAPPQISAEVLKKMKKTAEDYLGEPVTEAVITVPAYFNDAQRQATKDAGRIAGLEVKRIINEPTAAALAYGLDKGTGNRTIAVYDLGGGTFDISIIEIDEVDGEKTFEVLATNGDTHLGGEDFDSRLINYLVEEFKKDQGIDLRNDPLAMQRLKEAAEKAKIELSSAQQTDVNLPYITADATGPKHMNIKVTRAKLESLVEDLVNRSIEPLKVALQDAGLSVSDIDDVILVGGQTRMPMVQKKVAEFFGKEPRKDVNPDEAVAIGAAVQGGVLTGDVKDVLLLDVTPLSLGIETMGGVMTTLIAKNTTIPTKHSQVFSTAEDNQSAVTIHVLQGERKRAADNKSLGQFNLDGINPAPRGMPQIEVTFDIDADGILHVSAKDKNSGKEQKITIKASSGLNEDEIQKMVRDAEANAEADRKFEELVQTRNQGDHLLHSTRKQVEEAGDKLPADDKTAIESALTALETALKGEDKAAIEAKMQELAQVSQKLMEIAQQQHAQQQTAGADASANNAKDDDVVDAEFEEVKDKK

DnaK, untreated control [2] = target: T1, DnaK, untreated control; test: fluorescence polarisation; steady state; 20 nM FITC-…, increasing concentrations of DnaK, 60 min incubation, Buffer B (50 mM Tris-HCl pH 7.5, 100 mM KCl, 5 mM MgCl2), room temperature; apo or ADP state; single site binding model; details: both partners purified
[3] = target: T2, DnaK, glutathionylated at Cys-15 (E. coli, UniProt P0A6Y8 1-638, S-glutathionylated cysteine at Cys-15); test: as above; details: both partners purified
T2 construct: DnaK (bacterial Hsp70), E. coli, gene dnaK cloned from genomic DNA of E. coli C41 cells; primers from the start to the stop codon; the single cysteine Cys-15 carries glutathione; Modification reported as complete by Alexa Fluor 350 staining and mass spectrometry; also called glutathionylated DnaK; not shown: His6, N-terminal, cleaved; Smt3, N-terminal, cleaved
T2 sequence (P0A6Y8 whole entry): as above

DnaK, deglutathionylated [4] = target: T3, DnaK, deglutathionylated (E. coli, UniProt P0A6Y8 1-638); test: as above; details: both partners purified
T3 construct: DnaK (bacterial Hsp70), E. coli, gene dnaK cloned from genomic DNA of E. coli C41 cells; primers from the start to the stop codon; also called deglutathionylated DnaK; not shown: His6, N-terminal, cleaved; Smt3, N-terminal, cleaved
T3 sequence (P0A6Y8 whole entry): as above

DnaK, untreated control [5] = target: T1, DnaK, untreated control; test: pull-down; 2 μM His6-DnaJ, 5 μM His6-GrpE or 2 μM His6-Smt3-σ^32 with 20 μM DnaK, Buffer B, 1 mM ADP, 8 °C, 60 min; Ni-Sepharose HP; wash 300 mM KCl, 40 mM imidazole; elution 300 mM imidazole; SDS-PAGE, Coomassie; details: both partners purified
[6] = target: T2, DnaK, glutathionylated at Cys-15; test: as above; details: both partners purified
DnaK, deglutathionylated [7] = target: T3, DnaK, deglutathionylated; test: as above; details: both partners purified
DnaK, untreated control [8] = target: T1, DnaK, untreated control; test: cell-based or functional assay
[9] = target: T2, DnaK, glutathionylated at Cys-15; test: cell-based or functional assay

Binder | binding result (DnaK, untreated control [5]) | binding result [6] | binding result (DnaK, deglutathionylated [7]) | further results
{FITC}-ALLLSAPRR (also called FAR) [FITC-ALLLSAPRR peptide] |  |  |  | Kd (DnaK, untreated control [1]): ≥ 10000 nM; Kd (DnaK, untreated control [2]): 200 to 500 nM; Kd [3]: 4000 to 6000 nM; Kd (DnaK, deglutathionylated [4]): 200 to 500 nM
B1 | binds | binds | binds | 
B2 | binds | binds | binds | 
B3 |  |  |  | acceleration of ATP turnover of DnaK by DnaJ, malachite green ATPase assay, DnaJ to DnaK ratio 2:1 (DnaK, untreated control [8]): 6 fold; acceleration of ATP turnover of DnaK by DnaJ, malachite green ATPase assay, DnaJ to DnaK ratio 2:1 [9]: 2 fold
